Results reported in patent US20060147922A1 (published 2006).

Legend:
[1] = target: T1, EDDF3, carboxy domain of EDD (aa 1877-2799) (human, UniProt O95071 1877-2799); assay: GSTchk2-N pull-down of IVT EDD deletion mutants
T1 construct: In vitro translated, 35S-labelled; also called carboxy third; carboxy terminal region of EDD
T1 sequence: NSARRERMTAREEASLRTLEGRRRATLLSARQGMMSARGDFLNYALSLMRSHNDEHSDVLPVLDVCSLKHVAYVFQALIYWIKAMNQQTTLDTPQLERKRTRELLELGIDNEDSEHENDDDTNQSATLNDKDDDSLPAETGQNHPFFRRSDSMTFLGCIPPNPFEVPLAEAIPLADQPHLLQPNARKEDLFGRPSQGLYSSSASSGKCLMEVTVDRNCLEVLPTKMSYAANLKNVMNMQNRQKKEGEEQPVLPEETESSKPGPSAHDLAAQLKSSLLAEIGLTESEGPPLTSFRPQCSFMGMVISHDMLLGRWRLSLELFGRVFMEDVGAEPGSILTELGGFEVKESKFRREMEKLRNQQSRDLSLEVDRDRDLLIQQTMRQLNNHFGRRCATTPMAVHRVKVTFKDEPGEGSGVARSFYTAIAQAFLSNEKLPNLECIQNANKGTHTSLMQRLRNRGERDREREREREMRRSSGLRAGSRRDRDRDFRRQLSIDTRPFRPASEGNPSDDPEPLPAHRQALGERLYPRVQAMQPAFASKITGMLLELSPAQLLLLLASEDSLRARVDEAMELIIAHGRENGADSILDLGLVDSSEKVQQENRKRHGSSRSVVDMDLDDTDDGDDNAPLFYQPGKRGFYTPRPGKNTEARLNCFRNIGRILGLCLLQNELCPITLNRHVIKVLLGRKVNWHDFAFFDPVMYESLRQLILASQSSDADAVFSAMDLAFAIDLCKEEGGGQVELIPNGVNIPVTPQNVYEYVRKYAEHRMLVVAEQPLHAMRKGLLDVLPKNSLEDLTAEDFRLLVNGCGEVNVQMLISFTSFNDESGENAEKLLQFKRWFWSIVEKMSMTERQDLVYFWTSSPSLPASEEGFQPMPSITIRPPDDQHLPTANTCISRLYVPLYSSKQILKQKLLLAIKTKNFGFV

[2] = target: T2, EDDF2, central domain of EDD (aa 889-1877) (human, UniProt O95071 889-1877); assay: GSTchk2-N pull-down of IVT EDD deletion mutants
T2 construct: In vitro translated, 35S-labelled; also called central third; central region of EDD
T2 sequence: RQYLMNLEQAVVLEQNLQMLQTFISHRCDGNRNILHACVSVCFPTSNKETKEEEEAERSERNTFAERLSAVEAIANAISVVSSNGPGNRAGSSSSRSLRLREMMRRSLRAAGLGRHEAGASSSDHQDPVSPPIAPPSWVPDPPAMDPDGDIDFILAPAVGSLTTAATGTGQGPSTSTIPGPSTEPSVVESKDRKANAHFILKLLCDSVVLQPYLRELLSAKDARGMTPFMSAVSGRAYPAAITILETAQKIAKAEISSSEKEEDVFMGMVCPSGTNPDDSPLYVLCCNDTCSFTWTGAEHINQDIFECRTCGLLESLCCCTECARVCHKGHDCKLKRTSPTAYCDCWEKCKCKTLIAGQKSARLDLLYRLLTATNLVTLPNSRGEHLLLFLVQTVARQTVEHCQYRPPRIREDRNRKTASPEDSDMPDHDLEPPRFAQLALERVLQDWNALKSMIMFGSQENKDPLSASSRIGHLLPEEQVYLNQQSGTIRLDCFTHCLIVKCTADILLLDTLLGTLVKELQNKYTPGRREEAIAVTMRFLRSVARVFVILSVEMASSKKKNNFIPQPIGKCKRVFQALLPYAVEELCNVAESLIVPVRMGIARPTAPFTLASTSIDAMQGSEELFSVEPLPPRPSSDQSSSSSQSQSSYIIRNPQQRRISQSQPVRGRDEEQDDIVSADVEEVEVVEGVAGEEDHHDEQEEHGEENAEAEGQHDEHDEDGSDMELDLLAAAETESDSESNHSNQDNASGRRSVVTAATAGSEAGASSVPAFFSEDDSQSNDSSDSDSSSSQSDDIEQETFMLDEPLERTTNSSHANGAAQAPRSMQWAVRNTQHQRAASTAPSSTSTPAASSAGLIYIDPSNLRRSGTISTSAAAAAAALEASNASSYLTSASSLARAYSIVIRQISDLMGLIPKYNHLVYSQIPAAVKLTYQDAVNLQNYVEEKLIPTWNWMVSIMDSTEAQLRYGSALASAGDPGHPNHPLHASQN

B1: GSTchk2-N (GST fused to chk2 aa 1-225) (other)
chain: MSRESDVEAQQSHGSSACSQPHGSVTQSQGSSSQSQGISSSSTSTMPNSSQSSHSSSGTLSSLETVSTQELYSIPEDQEPEDQEPEEPTPAPWARLWALQDGFANLECVNDNYWFGRDKSCEYCFDEPLLKRTDKYRTYSKKHFRIFREVGPKNSYIAYIEDHSGNGTFVNTELVGKGKRRPLNNNSEIALSLSRNKVFVFFDLTVDDQSVYPKALRDEYIMSKT
notes: contains the SQ/TQ and FHA domains; also called GSTCHK2-N (WT); chk2 N-terminus; not shown: glutathione S-transferase (GST) fusion partner
Question: Does B1 bind [1]?
Answer: no binding

Question: Does B1 bind [2]?
Answer: no binding
